We go through two molecules from PMC10460389, “Design of 8-mer peptides that block Clostridioides difficile toxin A in intestinal cells” (Communications Biology, 2023).

Ends that are not written are not given here.

The target of this assay is T1, Clostridioides difficile Toxin A labelled with Alexa Fluor 594 (Clostridioides difficile, UniProt P16154 1-2710).
T1 construct: also called TcdA-AF594; red fluorescently labeled TcdA
Kind of assay: bead-based fluorescence imaging. Particulars: both partners purified.

T1 sequence (P16154 whole entry, looked up): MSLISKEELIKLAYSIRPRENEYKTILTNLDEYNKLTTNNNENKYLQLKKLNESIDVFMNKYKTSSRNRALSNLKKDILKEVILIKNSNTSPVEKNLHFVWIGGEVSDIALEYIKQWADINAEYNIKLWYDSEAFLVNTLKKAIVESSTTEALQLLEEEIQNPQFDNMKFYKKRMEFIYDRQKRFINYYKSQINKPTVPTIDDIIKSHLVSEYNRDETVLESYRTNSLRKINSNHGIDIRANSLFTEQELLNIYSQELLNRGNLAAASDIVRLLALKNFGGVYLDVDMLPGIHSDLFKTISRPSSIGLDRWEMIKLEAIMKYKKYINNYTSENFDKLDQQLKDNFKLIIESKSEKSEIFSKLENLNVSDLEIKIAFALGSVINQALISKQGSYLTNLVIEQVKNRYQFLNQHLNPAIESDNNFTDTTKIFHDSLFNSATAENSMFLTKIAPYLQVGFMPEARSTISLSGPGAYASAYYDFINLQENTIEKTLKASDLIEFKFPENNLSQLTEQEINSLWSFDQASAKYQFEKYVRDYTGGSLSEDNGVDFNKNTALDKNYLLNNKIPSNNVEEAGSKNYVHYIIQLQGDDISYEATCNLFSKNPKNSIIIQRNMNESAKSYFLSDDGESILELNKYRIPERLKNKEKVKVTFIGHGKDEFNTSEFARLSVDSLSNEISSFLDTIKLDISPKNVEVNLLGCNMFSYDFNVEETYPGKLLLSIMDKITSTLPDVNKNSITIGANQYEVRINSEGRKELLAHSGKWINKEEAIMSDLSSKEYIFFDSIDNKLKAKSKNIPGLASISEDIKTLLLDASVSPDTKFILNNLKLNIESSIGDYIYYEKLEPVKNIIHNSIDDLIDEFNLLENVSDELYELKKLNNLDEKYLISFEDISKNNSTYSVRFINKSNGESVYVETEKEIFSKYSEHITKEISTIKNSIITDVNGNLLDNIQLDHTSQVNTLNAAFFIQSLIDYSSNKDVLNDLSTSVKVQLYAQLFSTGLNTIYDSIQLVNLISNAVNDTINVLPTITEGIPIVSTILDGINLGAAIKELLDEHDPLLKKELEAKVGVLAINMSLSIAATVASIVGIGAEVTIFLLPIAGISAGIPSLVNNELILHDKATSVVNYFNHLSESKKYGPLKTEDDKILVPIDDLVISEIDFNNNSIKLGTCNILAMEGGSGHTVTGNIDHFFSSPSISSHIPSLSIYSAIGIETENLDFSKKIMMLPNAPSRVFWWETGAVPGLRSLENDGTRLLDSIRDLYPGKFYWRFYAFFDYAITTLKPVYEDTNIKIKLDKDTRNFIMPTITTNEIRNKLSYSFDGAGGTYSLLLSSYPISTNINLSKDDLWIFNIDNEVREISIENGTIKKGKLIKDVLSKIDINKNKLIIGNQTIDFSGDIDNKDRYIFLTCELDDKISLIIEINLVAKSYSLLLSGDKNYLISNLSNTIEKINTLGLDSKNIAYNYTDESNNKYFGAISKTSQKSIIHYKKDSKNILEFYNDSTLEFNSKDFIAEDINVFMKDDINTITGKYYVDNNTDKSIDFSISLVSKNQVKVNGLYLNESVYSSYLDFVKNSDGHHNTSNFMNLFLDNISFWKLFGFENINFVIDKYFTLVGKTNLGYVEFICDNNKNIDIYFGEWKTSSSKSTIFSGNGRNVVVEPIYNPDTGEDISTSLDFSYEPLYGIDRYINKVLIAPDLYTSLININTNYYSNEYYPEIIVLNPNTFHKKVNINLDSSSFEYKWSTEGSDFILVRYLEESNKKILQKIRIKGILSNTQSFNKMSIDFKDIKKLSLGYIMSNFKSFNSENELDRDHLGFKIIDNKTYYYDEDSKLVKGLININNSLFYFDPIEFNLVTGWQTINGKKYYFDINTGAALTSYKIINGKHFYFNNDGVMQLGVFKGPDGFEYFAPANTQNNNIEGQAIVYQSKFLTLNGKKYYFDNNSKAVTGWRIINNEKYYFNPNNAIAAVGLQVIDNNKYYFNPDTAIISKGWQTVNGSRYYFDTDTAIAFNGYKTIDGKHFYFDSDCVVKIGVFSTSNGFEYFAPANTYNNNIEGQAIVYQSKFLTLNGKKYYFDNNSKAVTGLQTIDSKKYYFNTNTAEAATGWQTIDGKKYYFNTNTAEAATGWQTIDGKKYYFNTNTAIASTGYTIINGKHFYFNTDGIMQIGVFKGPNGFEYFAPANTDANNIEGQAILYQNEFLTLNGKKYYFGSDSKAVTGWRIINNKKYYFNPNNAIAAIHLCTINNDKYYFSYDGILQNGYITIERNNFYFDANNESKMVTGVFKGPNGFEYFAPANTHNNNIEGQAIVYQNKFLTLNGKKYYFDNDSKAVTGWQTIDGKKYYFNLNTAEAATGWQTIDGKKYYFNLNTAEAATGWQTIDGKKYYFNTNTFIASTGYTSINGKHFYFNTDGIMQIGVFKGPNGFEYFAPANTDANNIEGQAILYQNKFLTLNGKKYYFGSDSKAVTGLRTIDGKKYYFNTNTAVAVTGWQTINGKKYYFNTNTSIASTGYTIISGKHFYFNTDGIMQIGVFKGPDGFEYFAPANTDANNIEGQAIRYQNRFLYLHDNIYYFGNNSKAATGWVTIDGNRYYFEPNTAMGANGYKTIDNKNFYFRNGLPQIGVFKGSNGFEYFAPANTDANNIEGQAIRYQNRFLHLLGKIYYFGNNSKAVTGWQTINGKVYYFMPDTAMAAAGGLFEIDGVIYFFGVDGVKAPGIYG

Turning to QDWMRRHWGSG (also: on ChemMatrix Aminomethyl bead via GSG linker) [SA2 on ChemMatrix Aminomethyl bead (GSG linker)], the binding result was “binds”.

Regarding MFWEHRHRGSG (also: on ChemMatrix Aminomethyl bead via GSG linker) [SA4 on ChemMatrix Aminomethyl bead (GSG linker)], the binding result was “binds”.
